Target: T1, complement C5a receptor (mouse (endogenous in Peyer's patch LysoDCs)) (UniProt P30993)
T1 sequence: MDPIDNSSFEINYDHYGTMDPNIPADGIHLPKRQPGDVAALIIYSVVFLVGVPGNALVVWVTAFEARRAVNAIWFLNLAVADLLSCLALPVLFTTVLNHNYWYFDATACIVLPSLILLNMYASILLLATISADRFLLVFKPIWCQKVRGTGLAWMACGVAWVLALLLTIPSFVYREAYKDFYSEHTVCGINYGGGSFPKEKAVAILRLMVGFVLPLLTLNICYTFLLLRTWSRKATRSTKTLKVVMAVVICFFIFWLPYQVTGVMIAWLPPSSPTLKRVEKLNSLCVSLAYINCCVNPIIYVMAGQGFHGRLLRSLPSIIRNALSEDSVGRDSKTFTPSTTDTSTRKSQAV

CCL2 (MCP-1) in the culture supernatant of C5aR+ LysoDCs treated with Co1 peptide (10 uM, 24 h), against untreated C5aR+ LysoDCs and Co1-treated C5aR- LysoDCs: > 2 fold | CCL3 (MIP-1alpha) in the culture supernatant of C5aR+ LysoDCs treated with Co1 peptide (10 uM, 24 h), against untreated C5aR+ LysoDCs and Co1-treated C5aR- LysoDCs: > 2 fold
Binder: SFHQLPARSPLP [Co1 peptide]

From paper PMC10425327
